In assay [1] the target is recombinant human VEGF (human) (UniProt P15692). Briefly: cell-based or functional assay.
The target in a further assay is rabbit VEGF (rabbit) (UniProt G1T1L9). The assay is described as follows: SPR, summary table, column Rabbit VEGF, Kd [M]. Background: Surface plasmon resonance follows binding to a sensor surface in real time, without labels.

Chain of recombinant human VEGF (human) (P15692 other isoform, or with tags, fused parts or gaps limits assumed): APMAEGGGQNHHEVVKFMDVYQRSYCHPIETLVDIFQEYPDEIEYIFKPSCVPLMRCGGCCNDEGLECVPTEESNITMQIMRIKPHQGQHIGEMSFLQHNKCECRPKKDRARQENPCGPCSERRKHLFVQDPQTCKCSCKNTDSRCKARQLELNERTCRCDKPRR

Take aflibercept (Fc fusion): in assay [1], the IC50, VEGF reporter assay (KDR/NFAT-RE HEK293 cells, luminescence) is 0.75 nM. Also, in the assay with rabbit VEGF (rabbit), the Kd – broadly, a measure of binding affinity in units of concentration – came out at 1.41 nM.

The record behind these values is patent US20230287109A1.
